Among the data in the RNAGym collection of RNA variant scans (doi:10.7554/elife.80360) are self-cleavage values, retold here.

To fix the notation:
B1: Hammerhead Ribozyme (parent)
chain: ACCGGAUGUGCUUUCCGGUCUGAUGAGUCCGUGAGGACGAAACAG

In this data set the parent is B1. Kind of data set: self-cleavage, relative activity (ratio to wild type); higher = more cleavage; co-transcriptional.
ACCAGAUGUGCUUUCCGGUCUGAUGAGUCCGUGAAGACGAAACAG [G4A G35A]: the self-cleavage came out at 0.386. With ACCGGAUGUGCUUCCCGGUCUGAUGAGACCGUGAGGACGAAACAG [U14C U28A] the figure was 0.501; with ACCGGAUGUGCUUUCCGGUCUGAUGAGUCAGUGAGGACGAGACAG [C30A A41G], 0.347.

On to AUCGGAUGUGCUUUCCGGUCUGGUGAGUCCGUGAGGACGAAACAG [C2U A23G], for which the self-cleavage amounted to 0.385.

For the variant ACCGGAUGUGCUUUCCGGUCUCAUGAGCCCGUGAGGACGAAACAG [G22C U28C], the self-cleavage is 0.298. With UCCGGAUGUGCUUUCCGGUCUGAUGAGUCAGUGAGGACGAAACAG [A1U C30A] the figure was 0.487; with ACCGGAUGUCCUUUCCGGUCUGAUGAGACCGUGAGGACGAAACAG [G10C U28A], 0.381; with ACCGGAUGUGCUAUCCGGUCUGAUGAGUCCGUGAGGACGUAACAG [U13A A40U], 0.379. With ACCGGAUGUGCUUUCGGGUAUGAUGAGUCCGUGAGGACGAAACAG [C16G C20A] the figure was 0.336; with ACAGGAUGUGCUUUCCGGUCUGAUGAGUCCGUGACGACGAAACAG [C3A G35C], 0.324; with ACAGGAUGUGCUUUCCGGUCUGAUGAGUCCGUGAAGACGAAACAG [C3A G35A], 0.376. With ACCGGAGGUGCUUUCCGGUCUGAUGAGUCCGAGAGGACGAAACAG [U7G U32A] the figure was 1.49; with AUCGGAUGUGCUUUCCGGUCUGAUGAGUCCGUGAGCACGAAACAG [C2U G36C], 0.371.

Take ACCGGACGUGCUUUCCGGUCUGAUGAGUCCGUGAGGACGAAACUG [U7C A44U]: the self-cleavage came to 0.582. In the case of ACCGGAUGUGCUUUCCGGUCUGAUGAGUCCAUGAGGACGAAACGG [G31A A44G] it was 1.51; in that of ACCGUAUGUGCUUUCCGGUCUGAUGAGUCCGUGAGGACAAAACAG [G5U G39A], 0.339.

On to ACCGGAUGUGCUUUCCGGUCGGAUGCGUCCGUGAGGACGAAACAG [U21G A26C], for which the self-cleavage stood at 0.237.

Turning to ACCUGAUGUGCUCUCCGGUCUGAUGAGUCCGUGAGGACGAAACAG [G4U U13C], the self-cleavage is 0.634. With ACCGGAUGUGCCUUCCGGUCUGAUGAGUCCGUGAGGACGAACCAG [U12C A42C] the figure was 0.32; with ACCGGAUGUGCUUUCCGGUCUGGUGUGUCCGUGAGGACGAAACAG [A23G A26U], 0.3. In the case of ACCGGAUGUGCUUUCCAGUCUGAUGAGUCCGUGAGGACGAAACAG [G17A] it was 0.768; in that of ACCGGAUGUGAUUUCCGGUCUGUUGAGUCCGUGAGGACGAAACAG [C11A A23U], 0.401; in that of AUCGGAUGUGCUUUCCGGUCUGAUGAGUCCGUGAGGACGUAACAG [C2U A40U], 0.346. With ACCGGAUGUGCUUUCCGGUCUGAUGAGGCGGUGAGGACGAAACAG [U28G C30G] the figure was 0.315. On to ACCGGAUGUGCUGUCGGGUCUGAUGAGUCCGUGAGGACGAAACAG [U13G C16G], for which the self-cleavage was 0.899. As for ACCGGAUGUGCUAUCCGGUCUGAUGAGUCCGUGAGGACGAAAUAG [U13A C43U], the self-cleavage stood at 0.614. With ACCGGAUGUGCUUUCCGGUCUGAUGACGCCGUGAGGACGAAACAG [G27C U28G], the self-cleavage stood at 0.389. In the case of ACCGGAUGUGCUUUCCGGUCUGAUAAGUCCGUGAGGACGAAUCAG [G25A A42U] it was 0.333; in that of ACCGGAUGUGCUUUCCGGUCUGAUGAGUCAGUGAGCACGAAACAG [C30A G36C], 0.525; in that of AUCGGAUGUGAUUUCCGGUCUGAUGAGUCCGUGAGGACGAAACAG [C2U C11A], 1.46. With ACCGGAUGUGCUUUCCGGUCUGAUGAGUCCAGGAGGACGAAACAG [G31A U32G] the figure was 0.529; with ACCGGAUGUGCUUUCCGGUCUGAUGAGUCCGUGAGCUCGAAACAG [G36C A37U], 0.29; with ACCGGAUGUGCUUUCCGGUCUGAUGAGUCCGUAAGGAGGAAACAG [G33A C38G], 0.854. With ACCGAAUGUGCUUUCCGGUCUAAUGAGUCCGUGAGGACGAAACAG [G5A G22A] the figure was 0.322; with ACCGGAUGUGCUUUCCGGUCCGAUGAGCCCGUGAGGACGAAACAG [U21C U28C], 0.977. With ACCAGAUGUGCUUUCCGGUCUGAUGAGUCCGUGAGGACUAAACAG [G4A G39U], the self-cleavage amounted to 0.26. In the case of ACCGGAGGUGCUUUCCGGUCUGAUGAGCCCGUGAGGACGAAACAG [U7G U28C] it was 1.36; in that of ACGGGAUGUGCUUUCCGGUCUGAUGAGUCCGUGAGGACGUAACAG [C3G A40U], 0.309; in that of UCCGGAUGUGCUUUUCGGUCUGAUGAGUCCGUGAGGACGAAACAG [A1U C15U], 0.55. With ACCGGAUGUGCUUUCCGGUCUGAGGAGUCCGUGAGGCCGAAACAG [U24G A37C] the figure was 1.05.

As to ACCGAAUGUGCUUUCCGGUCUGAUGAGUUCGUGAGGACGAAACAG [G5A C29U], the self-cleavage was 0.95. With ACCGGAUGUGCUUUCCGGAGUGAUGAGUCCGUGAGGACGAAACAG [U19A C20G] the figure was 0.31; with ACCUGAUGUGCGUUCCGGUCUGAUGAGUCCGUGAGGACGAAACAG [G4U U12G], 0.564. With ACCGGAUGUGCUUUGCGGUCUGAUGAGGCCGUGAGGACGAAACAG [C15G U28G] the figure was 0.384. In the case of ACCGGAUGUGCUUUCCGGUCUGAUGGGACCGUGAGGACGAAACAG [A26G U28A] it was 0.274; in that of ACCGGAUGCGCUUUCCGGUCUGAUGAGUCCGUGAGGACGAAACAC [U9C G45C], 0.648.

Take CCCGGAUGUGCUUUCCGGUCUGAUGAGUCCGUGAGAACGAAACAG [A1C G36A]: the self-cleavage turned out to be 0.394. On to ACCGGAUGUGCUUUCCGGUCUGAUGAGUCCGGGAGCACGAAACAG [U32G G36C], for which the self-cleavage is 0.464. In the case of ACCGGAUGUGCUUUCCAGUCUGAUGAGUCCGUGAGGUCGAAACAG [G17A A37U] it was 0.528; in that of ACCGGAUGUGCUUUCCGGUCUGAUCACUCCGUGAGGACGAAACAG [G25C G27C], 0.278. With ACCGGAUGUGCUUUCCGGUCUGUUGAGUCCGUGAGGACUAAACAG [A23U G39U] the figure was 0.315; with ACCGGAUGUGCUUCCCGGUCUGAUGAGUCCGUGAGGUCGAAACAG [U14C A37U], 0.624; with ACCGGCUGUGCUUUCCGGUCUGAUGAGUCCGUGAGGACGAAAUAG [A6C C43U], 0.429. With ACCGGCUGUGCUUUCCGGUCUGAUGAGUCCGUGAGGACGAAAAAG [A6C C43A] the figure was 0.287. In the case of ACCGGAUGUGCUUCCCGGUCUGAUAAGUCCGUGAGGACGAAACAG [U14C G25A], the self-cleavage was 0.305.

Turning to ACAGGAUGUGCUUUCCGGUCUGAUGAGUCCGUGAGGACGUAACAG [C3A A40U], the self-cleavage was determined as 0.278. In the case of ACCGGAUGUGCUAUCCGGUCUGAUGAGUCCGUGAGGUCGAAACAG [U13A A37U] it was 0.908.
